# Assay results published in publication doi:10.1101/2022.08.26.505453.
# Several values for one entry are separate records, joined by “and”; a condition that tells them apart may be missing. Identical values can stand only once.
# Tests used:
# [1] = molecular target: MBP-Vpu fusion protein (His8 tag, maltose binding protein, 11-residue linker, full-length HIV-1 Vpu with Q36C) (HIV-1); assay: SDS-PAGE and western blot
# [2] = molecular target: MBP-Vpu fusion protein (His8 tag, maltose binding protein, 11-residue linker, full-length HIV-1 Vpu with Q36C) (HIV-1); assay: SEC
# [3] = molecular target: MBP-Vpu fusion protein (His8 tag, maltose binding protein, 11-residue linker, full-length HIV-1 Vpu with Q36C) (HIV-1); assay: SEC; remark: listed apart in the source
# [4] = molecular target: MBP-Vpu fusion protein (His8 tag, maltose binding protein, 11-residue linker, full-length HIV-1 Vpu with Q36C) (HIV-1); assay: SEC; remark: listed apart in the source
# [5] = molecular target: MBP-Vpu fusion protein (His8 tag, maltose binding protein, 11-residue linker, full-length HIV-1 Vpu with Q36C) (HIV-1); assay: negative staining electron microscopy
substance,measurement,setting,value
"MBP-Vpu fusion protein (His8 tag, maltose binding protein, 11-residue linker, full-length HIV-1 Vpu with Q36C)",stoichiometry N,[1],2 and 5
same,stoichiometry N,[2],5 and 4
same,stoichiometry N,[3],5
same,stoichiometry N,[4],5 and 4
same,stoichiometry N,[5],5
